Results as given in article doi:10.1101/2025.10.29.685445 (bioRxiv, 2025).

Experiments:
[1] = target: T1, HCoV-HKU1 RBD (residues 310-606 of isolate N5), as used in BLI (Human coronavirus HKU1, isolate N5, UniProt Q0ZME7); assay: BLI; details: both partners purified
T1 construct: source: FreeStyle 293-F, transfected (PEI), purified (Protein A, Superdex 200)

[2] = target: T2, HCoV-HKU1 RBD (residues 310-606 of isolate N5), Fc- and His-tagged (Human coronavirus HKU1, isolate N5, UniProt Q0ZME7); assay: SPR; details: both partners purified
T2 construct: also called HCoV-HKU1 S1-CTD; not shown: Fc-tag, C-terminal, kept; 8X HisTag, C-terminal, kept
T2 sequence (Q0ZME7 310-606): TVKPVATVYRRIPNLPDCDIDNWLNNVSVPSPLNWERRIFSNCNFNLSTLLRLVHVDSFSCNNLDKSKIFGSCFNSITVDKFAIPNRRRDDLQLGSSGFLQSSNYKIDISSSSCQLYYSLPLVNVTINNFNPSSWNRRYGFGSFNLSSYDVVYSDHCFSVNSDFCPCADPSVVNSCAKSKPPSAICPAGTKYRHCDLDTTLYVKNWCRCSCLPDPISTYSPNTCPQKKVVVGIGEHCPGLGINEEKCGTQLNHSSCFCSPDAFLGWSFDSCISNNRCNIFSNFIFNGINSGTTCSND

T1 sequence (Q0ZME7 310-606): as above

Binder | Kd [1] [pM] | koff [1] [s⁻¹] | kon [1] [M⁻¹ s⁻¹] | Kd [2] [pM]
H501-018 IgG (antibody, V domains shown, also called mAb H501–018; H-018; copies: 2 + 2) VH: QVQLQESGPGLVKPSETLSLTCSVSGGSISNFYWSWIRQPPGKGLEWIGYIYYTGSSEYNPSLKSRVILSVDTSKNHFSLKLSSVTAADTAIYYCARGTWSRRLEVDLWGQGTLVTVSS VL: QSVLTQPPSASGTPGQRVTISCSGSSSNIGSNYVYWYQQLPGTAPKLLIYRSIQRPSGVPDRFSGSKSGTSASLAISGLRSEDEADYYCATWDDSLNSWVFAGGTKLTVL | 370 | 0.000105 | 283000 | 
H501-022 IgG (antibody, V domains shown, also called mAb H501–022; H-022; copies: 2 + 2) VH: QGTLKESGPMLVKPTQTLTLTCNFSGFSLSTSGVGVGWIRQPPGKALECLALIYWNDDQRYSPSLKTRLTITKDTSKNQVVLTMTNMDPVDTATYYCVYSMSRPVAGGVIDHWGQGTLVTVSS VL: DIQLTQSPSSLSASEGDRVTITCWASQNIRGYLNWYQQKPGKAPKLLIYATSTLESGVPSRFSGSGSVTDYTLTISSLQPEDFATYSCQQSYSSPPTFGGGTKVDIK | 2010 | 0.000555 | 276000 | 
H501-008 Fab (Fab, V domains shown, also called H501–08 Fab) VH: QVQLVQSGGGVVQPGRSLRLSCAVSGFTLDRYAMHWVRQAPGKALEWVALMSADGREQYYAESVKGRFTFSRDSSKNTLYLQMHNLRTDDSSVYFCAREGPMYYDAWSGRSYYNNYALDVWGRGTTVAVSS VL: QSVLTQPPSVSAAPGQTVTISCSGSSSNIGDNYVSWYQQVPGTAPRLLVYDNNRRPLGIPDRFSGSKSGTSATLAIAGLQTGDEADYYCGTWDSSLSAGVFGGGTKLTVV |  |  |  | 161
H501-008 IgG (antibody, V domains shown, also called H501–08; mAb H501–008; copies: 2 + 2) VH: QVQLVQSGGGVVQPGRSLRLSCAVSGFTLDRYAMHWVRQAPGKALEWVALMSADGREQYYAESVKGRFTFSRDSSKNTLYLQMHNLRTDDSSVYFCAREGPMYYDAWSGRSYYNNYALDVWGRGTTVAVSS VL: QSVLTQPPSVSAAPGQTVTISCSGSSSNIGDNYVSWYQQVPGTAPRLLVYDNNRRPLGIPDRFSGSKSGTSATLAIAGLQTGDEADYYCGTWDSSLSAGVFGGGTKLTVV | 937 | 0.000315 | 336000 | 
